Assay results from the supplement of paper PMC10567573.

B1: TMEM106C (parent)
chain: TVPEILVHNIVIFMRTSVKISYIG
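Note: lentivirally expressed fusions sorted by FACS into six bins by GFP to DsRed ratio, PSI derived from sequencing read proportions per bin multiplied by bin number.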

Variants of: B1
Assay: protein stability index of a GFP-peptide fusion (GPS, HEK-293T) (PSI 1-6); higher = more stable
Conditions: c terminus: a fixed tail appended
Variant V7M has a protein stability index of 2.05. In the case of V7N, the protein stability index is reported as 2.83. With V7P the protein stability index was 3.59. With V7Q the protein stability index was 3.02. With V7R the protein stability index was 2.44. V7S gave a protein stability index of 2.37. Work on V7T yielded a protein stability index of 2.15. In the case of V7W, the protein stability index is reported as 3.68. For V7Y, the protein stability index was 3.26. For H8D, the protein stability index was 3.5. H8F gave a protein stability index of 3.98. With H8G the protein stability index was 2.27. H8I showed a protein stability index of 2.58. H8K showed a protein stability index of 3.34. Work on H8L yielded a protein stability index of 3.28. H8N gave a protein stability index of 3.21. Variant H8P has a protein stability index of 3.19. With H8Q the protein stability index was 2.63. Variant H8R has a protein stability index of 2.67. For H8S, the protein stability index was 3.74. With H8T the protein stability index was 2.41. With H8V the protein stability index was 2.81. In the case of N9A, the protein stability index is reported as 2.89. In the case of N9C, the protein stability index is reported as 2.85. Variant N9D has a protein stability index of 3.55. For N9E, the protein stability index was 2.96. Work on N9F yielded a protein stability index of 2.06. N9G showed a protein stability index of 2.98. N9H showed a protein stability index of 2.15. In the case of N9I, the protein stability index is reported as 2.82. With N9K the protein stability index was 2.02. For N9L, the protein stability index was 3.14. Work on N9M yielded a protein stability index of 3.79. In the case of N9P, the protein stability index is reported as 3.7. Work on N9Q yielded a protein stability index of 2.95. N9R showed a protein stability index of 2.94. With N9S the protein stability index was 2.31. N9T showed a protein stability index of 2.49. N9V gave a protein stability index of 2.49. In the case of N9W, the protein stability index is reported as 3.74. For N9Y, the protein stability index was 2.44. Variant I10A has a protein stability index of 3.07. Variant I10C has a protein stability index of 2.67. I10D gave a protein stability index of 2.47. For I10E, the protein stability index was 3.64. Variant I10F has a protein stability index of 3.5. Work on I10G yielded a protein stability index of 4.19. For I10H, the protein stability index was 3.4. With I10K the protein stability index was 4.3. Variant I10M has a protein stability index of 3.31. Variant I10N has a protein stability index of 2.65. I10P showed a protein stability index of 2.49. I10Q showed a protein stability index of 2.94. I10R gave a protein stability index of 2.42. In the case of I10T, the protein stability index is reported as 2.67. Variant I10V has a protein stability index of 2.92. Work on I10W yielded a protein stability index of 3.61. Variant I10Y has a protein stability index of 2.71. With V11A the protein stability index was 4.26. For V11C, the protein stability index was 3.91. In the case of V11D, the protein stability index is reported as 2.52. V11E showed a protein stability index of 3.64. V11F showed a protein stability index of 4.1. Work on V11G yielded a protein stability index of 3.12. In the case of V11H, the protein stability index is reported as 3.13. V11L showed a protein stability index of 1.78. For V11M, the protein stability index was 2.77. Work on V11N yielded a protein stability index of 2.86. For V11P, the protein stability index was 2.92. For V11Q, the protein stability index was 1.83. In the case of V11R, the protein stability index is reported as 2.22. For V11S, the protein stability index was 3.97. Variant V11T has a protein stability index of 3.11. For V11W, the protein stability index was 2.85. V11Y gave a protein stability index of 2.44. Work on I12C yielded a protein stability index of 2.8. In the case of I12D, the protein stability index is reported as 3.93. For I12E, the protein stability index was 3.69. Variant I12F has a protein stability index of 2.8. I12G gave a protein stability index of 3.97. In the case of I12H, the protein stability index is reported as 3.33. I12K showed a protein stability index of 2.81. With I12L the protein stability index was 3.84. I12M showed a protein stability index of 2.29. With I12N the protein stability index was 3.08. In the case of I12P, the protein stability index is reported as 2.19. Work on I12Q yielded a protein stability index of 2.11. For I12R, the protein stability index was 3.25. Work on I12S yielded a protein stability index of 2.88. Variant I12T has a protein stability index of 2.07. In the case of I12V, the protein stability index is reported as 2.64. Work on I12W yielded a protein stability index of 2.08. For I12Y, the protein stability index was 3.05. For F13A, the protein stability index was 3.07. Work on F13C yielded a protein stability index of 3.25. In the case of F13D, the protein stability index is reported as 2.85. F13E gave a protein stability index of 2.27. F13G gave a protein stability index of 3.8. F13H showed a protein stability index of 2.11. Work on F13K yielded a protein stability index of 3.49. F13L showed a protein stability index of 4.27. Work on F13M yielded a protein stability index of 2.42. In the case of F13N, the protein stability index is reported as 3.17. F13P showed a protein stability index of 3.22. F13Q showed a protein stability index of 2.96. With F13R the protein stability index was 2.3. Variant F13S has a protein stability index of 2.83. Work on F13T yielded a protein stability index of 2.99. Variant F13V has a protein stability index of 3.33. Work on F13Y yielded a protein stability index of 3.23. In the case of M14A, the protein stability index is reported as 3.73. With M14C the protein stability index was 2.99. With M14D the protein stability index was 3.11. M14E gave a protein stability index of 3.79. With M14F the protein stability index was 2.97. With M14G the protein stability index was 3.13. Variant M14H has a protein stability index of 2.91. Variant M14I has a protein stability index of 2.85. M14K gave a protein stability index of 3.19. M14L gave a protein stability index of 3.05. M14N showed a protein stability index of 3.25. With M14P the protein stability index was 3.45. Variant M14Q has a protein stability index of 3.58. With M14R the protein stability index was 2.21. M14S gave a protein stability index of 4.03. M14V showed a protein stability index of 2.68. Work on M14W yielded a protein stability index of 2.87. With M14Y the protein stability index was 2.6. Variant R15A has a protein stability index of 2.33. In the case of R15C, the protein stability index is reported as 2.91. Work on R15D yielded a protein stability index of 2.57. Work on R15E yielded a protein stability index of 1.63. For R15F, the protein stability index was 3.57. Variant R15G has a protein stability index of 3.23. For R15H, the protein stability index was 2.94. R15I showed a protein stability index of 4.22. For R15K, the protein stability index was 3.46. R15L gave a protein stability index of 3.26. In the case of R15M, the protein stability index is reported as 3.77. R15N showed a protein stability index of 3.2. In the case of R15P, the protein stability index is reported as 2.47. With R15Q the protein stability index was 2.73. Variant R15S has a protein stability index of 3.18. For R15T, the protein stability index was 2.69. For R15V, the protein stability index was 3.67. In the case of T16A, the protein stability index is reported as 1.5. In the case of T16D, the protein stability index is reported as 2.97. Variant T16E has a protein stability index of 2.54. T16F gave a protein stability index of 3.06. T16I gave a protein stability index of 1.93. T16L gave a protein stability index of 3.11. Work on T16N yielded a protein stability index of 2.98. T16Q showed a protein stability index of 2.46. Work on T16R yielded a protein stability index of 2.5. Work on T16S yielded a protein stability index of 2.54. Variant T16W has a protein stability index of 2.85. T16Y showed a protein stability index of 3.88. In the case of S17A, the protein stability index is reported as 4.19. Work on S17C yielded a protein stability index of 3.88. S17D gave a protein stability index of 2.48. Variant S17E has a protein stability index of 3.3. S17F showed a protein stability index of 4.33. Work on S17G yielded a protein stability index of 2.1. In the case of S17H, the protein stability index is reported as 2.76. With S17I the protein stability index was 2.2. With S17K the protein stability index was 4.27. With S17L the protein stability index was 2.29.
